According to patent publication US20090060908A1:

Biological target: CD16 (FcγRIII) on human peripheral blood effector cells (human) (UniProt P08637)
Assay: cell-based or functional assay

Chain of CD16 (FcγRIII) on human peripheral blood effector cells (human) (P08637 17-254): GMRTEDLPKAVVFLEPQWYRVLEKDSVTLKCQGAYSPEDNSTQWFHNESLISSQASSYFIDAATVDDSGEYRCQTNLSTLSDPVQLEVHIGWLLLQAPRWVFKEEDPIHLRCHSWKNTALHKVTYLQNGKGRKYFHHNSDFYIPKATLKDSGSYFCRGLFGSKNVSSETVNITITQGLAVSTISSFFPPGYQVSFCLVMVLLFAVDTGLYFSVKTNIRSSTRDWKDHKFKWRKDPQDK

% lysis in ADCC by 1 µg/ml 2A10 (fucosylated or defucosylated) with 5 µg/ml anti-CD16 antibody 3G8: < 5%
% lysis in ADCC by 1 µg/ml 7F12 (CHO-derived or chicken-derived) with 5 µg/ml anti-CD16 antibody 3G8: 4%
Substance: anti-CD16 antibody 3G8
